From the supplement of paper PMC6755084

B1: minF1; the commonest letter at each place (parent)
chain: GAGACCGCAACTGAAAAGTTGTTATCAGAAATGGATGGGTTGAATTTCTGCACGTAGAAGCAAAAGGC

Variants of: B1
Assay: fraction ligated after 30 min (ligated reads / total reads); higher = more ligase activity
Conditions: with F1*subA RNA substrate (template-directed ligation), 42 °C
Outline: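 Ligated and unligated RNAs from a pool of minimized ligase ribozyme variants were separated on gels, reverse transcribed with barcoded primers and sequenced on a MiSeq. Core bases needed quality ≥30 to pass the filter. Each variant's fraction ligated was then taken as ligated reads over total reads.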

Variant	fraction ligated
A29T A43G	0.0507
A29T A43T	0.0859
A29T A43C	0.065
A30C G33C	0.684
A30C G33T	0.435
A30C G33A	0.773
A29C A43G	0.0549
A29C A43T	0.0813
A29C A43C	0.0193
A30T G33T	0.387
A30T G33A	0.747
A30T G33C	0.663
A30G A43T	0.188
A30G A43G	0.14
A30G A43C	0.179
A29T	0.815
A29C	0.823
A29G	0.827
A29T T32G	0.0161
A29T T32A	0.0493
A29T T32C	0.0232
G28A G42T	0.0941
G28A G42C	0.0107
G28A G42A	0.279

Variant	fraction ligated
G28T G37T	0.0287
G28T G37A	0.00866
G28T G37C	0.00638
A30C T32G	0.019
A30C T32A	0.0274
A30C T32C	0.00933
A30T A35G	0.161
A30T A35T	0.0204
A30T A35C	0.0121
G28A A30C	0.802
G28A A30G	0.816
G28A A30T	0.814
A31C G37T	0.0153
A31C G37A	0.0105
A31C G37C	0.00598
G28C A29C	0.795
G28C A29T	0.831
G28C A29G	0.812
G28C A35G	0.0701
G28C A35T	0.0136
G28C A35C	0.0372
G28C A29T A30T A31T	0.752
A31C T32A	0.0431
A31C T32G	0.0132

Variant	fraction ligated
A31C T32C	0.0181
G28T G34A	0.141
G28T G34C	0.00596
G28T G34T	0.00519
G28T G33T	0.725
G28T G33C	0.764
G28T G33A	0.814
A29G A35G	0.204
A29G A35C	0.0139
A29G A35T	0.023
A30T A31C	0.801
A30T A31G	0.785
A30T A31T	0.818
A30G T36C	0.0152
A30G T36G	0.0634
A30G T36A	0.0286
A29C T32A	0.0419
A29C T32G	0.0113
A29C T32C	0.0191
A30C G42A	0.217
A30C G42C	0.00724
A30C G42T	0.0701
G28C A31G	0.798
G28C A31C	0.664

Variant	fraction ligated
G28C A31T	0.814
G28C A30G	0.816
G28C A30C	0.817
G28C A30T	0.825
A29C G37C	0.00528
A29C G37T	0.0129
A29C G37A	0.00482
A31C A43G	0.0644
A31C A43C	0.0314
A31C A43T	0.0946
G28A A29T	0.822
G28A A29C	0.83
G28A A29G	0.835
A29T A30G	0.821
A29T A30T	0.789
A29T A30C	0.806
G28A G33T	0.593
G28A G33A	0.791
G28A G33C	0.719
A29C A30C	0.563
A29C A30G	0.827
A29C A30T	0.81
A29C A44C	0.607
A29C A44G	0.748

Variant	fraction ligated
A29C A44T	0.705
A29G T32A	0.0412
A29G T32G	0.0222
A29G T32C	0.0215
G28A A44G	0.753
G28A A44T	0.773
G28A A44C	0.667
G28T A43C	0.117
G28T A43T	0.158
G28T A43G	0.0967
A29T A31C	0.798
A29T A31G	0.811
A29T A31T	0.828
A29T A35G	0.153
A29T A35T	0.0234
A29T A35C	0.00991
A30T	0.823
A30G	0.807
A30C	0.806
A27T T36G	0.16
A30T G37C	0.0041
A30T G37A	0.00958
A30T G37T	0.0219
A30G A44T	0.809

Variant	fraction ligated
A30G A44C	0.735
A30G A44G	0.833
G28C G42T	0.0849
G28C G42A	0.264
G28C G42C	0.0102
G28T G42A	0.359
G28T G42C	0.017
G28T G42T	0.142
A29G A31G	0.795
A29G A31C	0.803
A29G A31T	0.812
G28A A35G	0.246
G28A A35T	0.0165
G28A A35C	0.0346
A30G T32G	0.0298
A30G T32C	0.0409
A30G T32A	0.108
A30T A43G	0.0459
A30T A43C	0.0532
A30T A43T	0.0685
A30C T36G	0.0467
A30C T36A	0.0266
A30C T36C	0.0174
A31C G33A	0.767

Variant	fraction ligated
A31C G33T	0.355
A31C G33C	0.653
G28C A44C	0.596
G28C A44G	0.674
G28C A44T	0.719
A29C G34C	0.00225
A29C G34T	0.00671
A29C G34A	0.042
G28C G34T	0.00677
G28C G34A	0.109
G28C G34C	0.00831
A30G G34T	0.00265
A30G G34A	0.0439
A30G G34C	0.00227
G28T T36G	0.0726
G28T T36A	0.0434
G28T T36C	0.0288
G28A G37A	0.00676
G28A G37C	0.00899
G28A G37T	0.0166
G28C G33A	0.772
G28C G33T	0.639
G28C G33C	0.641
